Data from a protein production outcome set (Wang et al. 2014).

Test: label from the status in PepcDB records
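Note: failed if final PepcDB status was selected cloned or expressed and not failed if soluble or beyond.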

Row | Sequence | protein production
1 | MIFIKKPSLKALSCASILFALSGCVPPNQFGEDYSRDVCKTKRDELIALDNHFSSNMVAGGIIGTLAGAGLGAAAAAATNGDIITATLIGAAAGMAVGAGSAYWNELSKQHGEGELLLFSLLGDMRRDEEKVTKAQIALDNLMSCRRTEAAQVHADYRAKRISAQEAKTRMEAIRRRAEKDVSVAKDINKGVQDRRGSYEYAFEQSKKIKTKNKKDKKKIEKTYTSMDKYCGSYNTSVQVAETSLNTEFKADGFTSSYLIYPDSTPNTQISCR | failed
2 | AQTPAQPQGKGIFQSVSEAIDAAHQAFLRYQQCPLKTRSAIISAMRQELTPLLATLAEESANETGMGNKEDKFLKNKAALDNTPGVEDLTTTALTGDGGMVLFEYSPFGVIGSVAPSTNPTETIINNSISMLAAGNSIYFSPHPGAKKVSLKLISLIEEIAFRCCGIRNLVVTVAEPTFEATQQMMAHPRIAVLAITGGPGIVAMGMKSGKKVIGAGNPPCIVDETADLVKAAEDIINGASFDYNLPCIAE | failed
3 | MTSHTPKFHRLAIAELRRETQDAVSMSFTIPDEIAADYTFAPGQYLTLRTTLDGEELRRSYSICSGPDDRELRIAVKKVNGGAFSGWALEQLKSGDQIEVMTPSGRFGVAHAPGESRVHVGFAAGSGITPLISIIRGILAREPNSRFFLFYGNRTTSNILFRQALQDLKDRFMARLAVFHVLSQEEQDLPILHGRLDRDRVTLLLRAMLPAQAIDHVFICGPTAMSEEIAATCAELGVPADRVHVERFVAGSGGKPRPTPVIAPQAPPAAIAALIIDGKRKEVPVAAGEAILDAALRAGIDLPYACKGGMCSTCRAKVVEGETRMDVNYSLEPWELDAGFVLTCQAHPVSDRVVIDYDAV | failed
4 | MEMINVFVYGTLRRGGGNHQLIAEYVQSVHEATVKGMLFHLPYGYPAMVDGRGTVRGEILELSNPETALTILDELEGYHGPGQSNEYERITVTAVTADGNKYICYTYVYPEEQREWLEQNAQPIFGGDWMAFLHSKDEVMYFAYGSCMSERDFRRTVPHFEVMGRAVLDDYRLAFTRYSSGRQGGVADIVPSPGDRVEGVLYKISSRYVKDLDWREGVPAGVYRREYIDVQHNGQLVSALTYVVVEKQLDEIAPSESYASIILDEGTSLLSPQYIEQVRRHIETLQKKGR | failed
5 | DLSREADQALQEIVRQTQETAQMCLLNGRKYTVALMKEGERHFRISSNIGENAPIPWTASGRLLLGHLSDGQIVDLIDERDFVLPDGERLPLETFLKQIRQATEDGFFSFDSVADTFTHCFAAPVRDEHGVCICTLCIVAPRADAQRNYQQYRRVLIDSANRLARRIN | failed
6 | MSDINKPFLVVIVGPTASGKTELSIELAKQINGEIISGDSMQVYKQMDIGTAKVTNEEMDGIPHYMIDILNPDDSFSVYDFKLRAQALIEDITSRGKIPIIAGGTGLYIQSLIYDYPFDDETVSKEVEQKTQLQLQKLEPLTNQEVHDYLATFDPQSAKDIHPNNRKRVLRAIEYYLNTKKLISSRKKVQQFTENYDTLLIGIEMSRKTLYSRINKRVDIMLGHGLFNEVKNLVEQGYESTQSMQAIGYKELVPVVNGELSIDQAVETLKQHSRQYAKRQLTWFKNKLTVQWFNRETMSLQMMLDEITTQINKRSSKHDCKPQHPRSSTREL | failed
7 | NRCTFACVFCQNYDIVYEDDYIVDARELAYIIDVRRRQGSKNVNFVGGNPDQHAHTIAEILLYVESNVPVVWNSNMYHSEELAEVIEDFVDVWLGDFKYGNDECARKYSKVANYWKVVTRNFLRAKENG | failed
8 | MKSFDGHNDLLARLWLSEHPDPVGMFLKGQLPGHLDFARCQQAQFAGGLFAIFVPPFDYVKNNHPYKLRKSAQAGFDTQDIHHIVFTQLDYIKQIASRSDRRIQICLSVEDIQFCLQQDIMAVVIHLEGAEVLDSEFGVLEQLHARGLRSIGPLWNLPNQFGHGLQASFPHSPDTGLGLTDQGKALIQLCSEKRIMIDVSHMNEKAFWDTAKISELPLIATHSNVHQLCPQPRNLTDAQLEAIQASQGCVGVNFDTAFLRPDGQRNAATSLDLILEHIEYLMHKLGEDQVAFGSDFDGGFISDHLKDVTGLIHLQQAFERRGYSQALQEKLCHQNWLSALQRVWHPAC | failed
9 | VAGKVEARKAALREKLIDLAEAQIEAEGLASLRARELARQADCAVGAIYTHFQDLNALTLEVNGRTFARLGAAVGAVVADGQDDHPNERLIAMSHAYLAFAREHPKLWRALFDVEMRSDGPVPQWYGHAMAQLFSYITTPLAKIFPESDDAELDLMTRTLFSSVHGIVLLGLENRISGVPGEQLKTMIRLLLEQVGR | not failed
10 | MLIFLISSAIVLLADLLITYQIYREIKVRREVSGNQGGFASVIIPVRGLDVNAEENLKSLLSQDYSAYEVIYVVDDENDPIVPILRKYNVKVVVSNKNCDICSGKINAQLEGLKHARGDIIVFADSDTWFPKYWLKELVSPLSNYVATTVFSWAKPVRLTIGNIIRAGFWTLGFESQAVGGTFLWGGSMAFKREFFDERVIQELKTQWCDDCTLTRIAKERGKLGFVFNAMPLNFYDETQLITWSKRQLITVWRYSRRGVNGFIIVAIFMLAFLFLIPFNVFAITPFIFWVFKNILRSYKIGLSNSIIPSLASILAIFYSLFLIALTLREKNIIWRGKIYKV | failed
11 | MVVSIITPLYKVEDFIARCADSLFRQSYTEIEYIFVDDCSSDRSVEVLLQVAERYPQLQQQIRILHHESNRGVAAARETGLAAATGEYVYWVDADDWIEPDAIEKMVVRSEQGQKDIIACGWYLCFRQNERRMPMPCYADAETALRGMLSGTMRWNLWLYMIKRDLYLMNDIHFMEGENVGEDMLVLIKLFSHAKSIGFVKDAFYHYVKQNENSLTRLSPEQQMKRQMRNLQAATDYLVTHFIGKYEKEINFFKLNAKMPLLISNDKNSYRTWTACFPEANKYIMANKRQTLRMRLVQLMAAKRQFWLVELYYQLVFKFVYGILYK | failed
12 | MTMRVVTAPAEPPQGASHVAPSFTRMDTSVLGRWWWTVDRPMLGAVALLIAAGVFLILAAGPPAAGRIGAQTYHFVQRQFLFVPVAGVLVIAVSLLPVLWVRRIAVLLFALFMVLLLGTLFVSSDIKGASRWIAIGPFALQPSEFVKPTFAVVTAWMFASARTQDRFPGNLIAMLLMAVVGALLVAQPDFGMTMVVACVWGTQFFLAGLSLVWVVLLAAVGMIGAVIAYFALPHVQSRVDRFLDPASGDQYQIRQSMKAFMEGGLFGRGPGEGRVKEFLPDAHTDFIFAVAGEEFGLFLCLTIVALFAFLIIRSAIRLRREQNLFVLIAAGGLLTQLGLQALINMASSLSLIPTKGMTLPFISYGGSSLLSTAVAMGMVLALTRRRAHGERT | failed
13 | MVRRRQTSETGLLRQLPLALLIWGLFSLMMWVPAVYALTLNDHPTSRSFFYAGILGLVVVTTISLARAGRPSRHGLLGQLAVLLSTFAVLPLFLAVPFHDALKTTSFLNAYFEMVSAITTTGAEMFPDPGRLSAPLHLWRAQVGWLGGLVMWIAASAILAPLSLGGFEVTAQGQPGRVLVGQGESVDPRGRLLRVAATLAPVYAGLTLVVAILLLAAGDSGLVAICHAMSVMATSGISPVGGLSGGASGLTGEAILFLFMFFALSRLTFSSDTAMRGHARLDQDPEFRIGLLILLGVPALLFLRHWSGAIDIASGENLTLALRALWGSLFTVMSFLSTTGFESTDWAEARQWSGLGTPGMILLGLSVIGGGVATTAGGVKLLRVYALYLNGTRELQRLVHPSSVSSATGRNRRIQRGGAFIAWVFFMLFAISLAAIALALAAAGSDFETAMVLSIATLSTTGPLIEIGAQEPIRLIEMPAAAKLILSGAMIIGRLETLAFIALITPALWRN | failed
14 | MTPQRATLTGMLAIILWSTSVGLIRSLTEALGPIGGAAMIYSTSTLCLLVFYGLPRIKTLPRIYLFAGGALFVCYEIFLSLSIGLADSRMQAMEIGMINYLWPSLTILFSLFINQQKSRFLLWPGLVISLGGIVWIMKGESDWTPELLWNNILANPLAYSLAFSAALTWALYCNITKRYGQGKSGVSLFFFIASLVLWIQYSFSAEGPISLTLPSSLELLFMGASAALAYSAWNAGIQYGNLTLLATASYFTPVLSTLLAAIWLNITPAISFWQGVAMVTAGSLLCWYATRSSTR | failed
15 | MTQPSGLKNLLRAAAGALPVVPRTDQLPNRTVTVEELPIDPANVAAYAAVTGLRYGNQVPLTYPFALTFPSVMSLVTGFDFPFAAMGAIHTENHITQYRPIAVTDAVGVRVRAENLREHRRGLLVDLVTNVSVGNDVAWHQVTTFLHQQRTSLSGEPKPPPQKKPKLPPPAAVLRITPAKIRRYAAVGGDHNPIHTNPIAAKLFGFPTVIAHGMFTAAAVLANIEARFPDAVRYSVRFAKPVLLPATAGLYVAEGDGGWDLTLRNMAKGYPHLTATVRGL | failed
16 | MDTPPTVFSIIIPVYNRPDEVRELLESLLIQTNSDFEVIIVEDGSSVCCDKEVDRVRELLRIQYVRVPNGGPAAARNIGARMAVGEYLLILDSDVVLPSGYIAAVKKRIEQMQADAFGGPDAAAEGFSPIQKAINYAMTSFFTTGGIRGGRRVRLDKFYPRSFNFGCKLSVYRQLGGFSEEMRFGEDIDFSLRLFKAGYNVCLFPEAFVFHKRRIDFKKFFRQVYNSGIARIHLQRRHPGSMKPVHILPALFTLGSVILAVGQFFCPWSLLPLLLLALLFLLDAWHTNRSLRIAILAVPASFVQLWGYGSGFLVACWRCYVLGHQEFRAFDKTFYN | failed
17 | MGEEEAVAEENGGLKVESGEQKSSWPTMRFDVSPYRTHHFSKQFRTARNPNNFLKGLKWSPDGSCFLASSEDNTLSLFHLPQDGGDSNGYGVPVPEEDSYGASLLVNEGESVYDFCWYPYMSVSDPLTCVFATSTRDHPIHLWDSTSGELRCTYRAYDAMDEITAAFSVGFNPDGTKIFAGYNSSIRVFDLHRPGRDFRQYSTLQKNKEGQAGILSTLAFSPTNSGMLAVGSYGQTTGIYREDNMELLYVLHGQEGGVTHVQFSKDGNYLYTGGRKDPYILCWDIRKSVEIVYKLYRATENTNQRVFFDIEPCGRHLGTGGQDGLVHMYDLQTGNWVSGYQAASDTVNAFSFHPYLPMAATSSGHRRFAIPDDDDGEDKNELQLKADENCVSLWSFYVEDNTYDENNGVASESHLQNVTEEIVLT | failed
18 | MKKGFVSIIIPSYNEASNIKLIYESLRNEFQSIDYDYEIYYINDGSTDRTLEEIKKLAEKSEHVKYISFSRNFGKEAAILAGFQHARGDAVVVMDADLQHPTYLLHDFIKGYEEGYDQVVAQRNRKGDNPVRSYLSSLYYRFINNAVEVDLRDGVGDFRLLSRKAVNAMLKLSEGNRFSKGLFCWIGFDQKIVYYENVERKNGKSKWSFRHLLNYGIDGIVSFNNRPLRMCFYAGIFILFLSLIYIAATFIRILKYGVIVPGYFTIISAVLFLGGVQLLSLGIIGEYIGRIYYETKKRPHYLIQEANIAHGETHENRES | failed
19 | MSVIKIEKALKLDKVIFVDVRTEGEYEEDHILNAINMPLFKNNEHNEVGTIYKMQGKHEAIQKGFDYVSYKLKDIYLQAAELALNYDNIVIYCARGGMRSGSIVNLLSSLGVNVYQLEGGYKAYRNFVLEYLRHVMDTK | not failed
20 | NNQIGFCGVRKNINGNLYLLVYGMPAAINIDPIEKKPILHMYPNSLIYSISTVGCSFACQYCQNYDISQRRNIEGFDYSPEEIVNSAIEDGCRGIAYTYNEPSIFMEFAHDVGILARKRGLINIFVTNGYETPEAVEYSKDFLDAATVDFKGNASNDFYRKYISVPSADPIFDTIKLMKESGIHVEITDLVVPRVGDKLSDARSMLERLISILGYEFPISFLRFHPDYKMMDLPPTPLETLKAHYNLAVSMGLKYVYIGNVPGYYEDTYCPNCHSLLIKRHGFNSSVV | failed
21 | MIVRGGGDLATGVIQKLWHVGFKILVLETECPLAIRRTVSVCDAIFQKEQRVEDLVAVRITSLKDCAKCWQQNKLPVFVDQTASAIQQLKPLIVIDAILAKKNLGTHRGMAPITIALGPGFSAPQDVDVVIETMRGHRLGRLYFEGTALPNTGIPGEIGGKSAERVVHAPASGQVTHLKNIGDLVLKGEALFLIDQVPVYSPLTGTLRGLISEKVTCYQGLKCADVDPRPVEKVDCLTISDKARALGGAVLEAIFMIGRRKNVLLEHHHHHH | not failed
